The target in assay [1] is T1, full-length murine urokinase-type plasminogen activator (muPA) (murine, UniProt P06869 21-433). The experiment in a line: SPR. (SPR reads the build-up and loss of mass on a sensor chip optically.)
Assay [2] has as its target T2, catalytic serine protease domain of murine urokinase-type plasminogen activator (muPA), Gly2-Gly244, C122A (murine). Briefly: SPR.
Assay [3] deals with T1, full-length murine urokinase-type …. Briefly: SPR. This is another data set of the same source.
The target in assay [4] is T2, catalytic serine protease domain of …. The experiment in a line: SPR. The source holds these as a separate data set.
Assay [5] deals with T3, catalytic domain of muPA (Gly2-Gly244, C122A) inhibited at the active site with Glu-Gly-Arg-chloromethylketone (murine, irreversible active site binding ligand Glu-Gly-Arg-chloromethylketone (EGR-cmk) in the active site). Briefly: SPR; EGR-cmk inhibited.
Assay [6] has as its target T4, full-length muPA inhibited at the active site with Glu-Gly-Arg-chloromethylketone (murine, UniProt P06869 21-433, irreversible active site binding ligand Glu-Gly-Arg-chloromethylketone (EGR-cmk) in the active site). Briefly: SPR; EGR-cmk inhibited.
The target in assay [7] is T3, catalytic domain of muPA (Gly2-Gly244, …). Briefly: SPR; EGR-cmk inhibited. This is another data set of the same source.
The target of assay [8] is T4, full-length muPA inhibited at the …. Briefly: SPR; EGR-cmk inhibited. This is another data set of the same source.

T3 sequence (chain, as listed by the source C122A): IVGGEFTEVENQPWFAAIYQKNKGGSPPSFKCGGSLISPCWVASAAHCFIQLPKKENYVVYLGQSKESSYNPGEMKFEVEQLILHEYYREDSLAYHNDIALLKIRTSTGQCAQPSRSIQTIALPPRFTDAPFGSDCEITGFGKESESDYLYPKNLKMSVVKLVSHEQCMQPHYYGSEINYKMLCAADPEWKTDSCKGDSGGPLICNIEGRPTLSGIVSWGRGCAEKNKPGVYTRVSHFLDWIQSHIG
T2 sequence (chain, as listed by the source C122A): as above
T4 sequence (P06869 21-433): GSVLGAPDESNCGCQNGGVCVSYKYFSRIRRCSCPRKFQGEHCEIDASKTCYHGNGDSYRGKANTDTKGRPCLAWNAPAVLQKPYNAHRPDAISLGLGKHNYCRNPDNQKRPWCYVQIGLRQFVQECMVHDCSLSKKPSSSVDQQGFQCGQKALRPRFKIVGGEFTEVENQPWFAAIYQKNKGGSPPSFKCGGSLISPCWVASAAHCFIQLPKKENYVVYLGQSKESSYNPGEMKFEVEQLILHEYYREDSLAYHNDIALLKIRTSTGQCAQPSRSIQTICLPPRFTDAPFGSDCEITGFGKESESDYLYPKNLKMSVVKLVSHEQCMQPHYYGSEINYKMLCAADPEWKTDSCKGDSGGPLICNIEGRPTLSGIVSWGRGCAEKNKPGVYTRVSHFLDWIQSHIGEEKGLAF
T1 sequence (P06869 21-433): as above

B1: anti-muPA allosteric nanobody Nb7 (VHH)
VHH: QVQLQESGGGLVQPGGSLRLSCAASGFTLGYYAIGWFRRAPGKEREGVSCISSSGGSTNYADSVKGRFTISRDNAKNTVDLQMNSLKPEDTAIYYCAAEWVPPGYGATVQALCNNAGYGMEYWGKGTQVTVSS
As a reminder, the koff is the first-order rate constant of dissociation. The low end stands for slow dissociation, the high end for fast dissociation. The term Kd denotes the constant that tells how readily two partners part at equilibrium. A lower Kd goes with tighter binding. Regarding B1, the koff in assay [1] worked out at 0.00054 s⁻¹; in assay [2], 0.0011 s⁻¹; in assay [5], 0.00101 s⁻¹; in assay [6], 0.00084 s⁻¹. For the same molecule, the dissociation constant Kd in assay [3] is 7.5 nM; in assay [4] it was 11.2 nM; in assay [7] it was 16.7 nM; in assay [8], 19.3 nM.

The record behind these values is PMC5469797 (2017).
